From the supplement of paper PMC10724198
± gives the standard deviation of the averaged measurements.

What follows are sequences tested on Saccharomyces cerevisiae (assay: protein stability index of tFT-peptide fusion (C-terminal peptide) (PSI (0-1 scale)); higher = more stable (slower turnover)). Settings: genetic background: wild type; temperature: 30 C.
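Note: PSI is a weighted mean of sequencing reads over stability bins, variants kept only with over 10 reads, mCherry proximal and sfGFP distal, peptide attached via GGGS linker.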

| Sequence | protein stability index |
| --- | --- |
| PPALPLFPNAAG | 0.709 ± 0.049 |
| PPALPPCRSRLV | 0.72 ± 0.049 |
| PPALRPSPPLSP | 0.698 ± 0.065 |
| PPAPFLLNPVPP | 0.727 ± 0.015 |
| PPAPLALPRLPS | 0.715 ± 0.061 |
| PPAPLLLPLSRP | 0.735 ± 0.0098 |
| PPAPPAFPRFGT | 0.703 ± 0.0051 |
| PPAPPHALPPGP | 0.671 ± 0.033 |
| PPAPPPADLGPP | 0.644 ± 0.093 |
| PPAPPPAPPHSS | 0.633 ± 0.061 |
| PPAPPPHPPLPP | 0.706 ± 0.043 |
| PPAPPPPPIRPP | 0.696 ± 0.033 |
| PPARHSPIFPVH | 0.786 ± 0.022 |
| PPASPPAYVTHP | 0.685 ± 0.049 |
| PPASSARPLLFL | 0.6664 ± 0.0053 |
| PPCPPPPAPPPP | 0.687 ± 0.044 |
| PPCVSGHPLRYS | 0.727 ± 0.045 |
| PPDGRPQEVWVP | 0.72 ± 0.037 |
| PPDHLTHPHIVN | 0.693 ± 0.013 |
| PPDLPPPPPPPT | 0.7 ± 0.055 |
| PPDPNCLPKQTS | 0.752 ± 0.058 |
| PPDPSTLSTSPS | 0.689 ± 0.042 |
| PPEPPLSSLRRP | 0.674 ± 0.073 |
| PPFASPSPLPPP | 0.7006 ± 0.0069 |
| PPFFSHDWYLRV | 0.695 ± 0.076 |
| PPFLPASHPAPS | 0.824 ± 0.065 |

| Sequence | protein stability index |
| --- | --- |
| PPFPPPLLPPSP | 0.732 ± 0.036 |
| PPFSSRTRPPLC | 0.67 ± 0.023 |
| PPFVSPQRQRLV | 0.669 ± 0.019 |
| PPGAQPRSPSPL | 0.771 ± 0.08 |
| PPGPAPPHAASH | 0.6421 ± 0.0029 |
| PPGPPIAPLFPP | 0.657 ± 0.0071 |
| PPGPSVPPHRPP | 0.754 ± 0.049 |
| PPHAPLPPPTPP | 0.634 ± 0.037 |
| PPHAPTRTTSGP | 0.6388 ± 0.0013 |
| PPHLCPTSLTTL | 0.642 ± 0.026 |
| PPHNTPLAPSQY | 0.659 ± 0.0094 |
| PPHPDTSPSFPP | 0.6787 ± 0.0022 |
| PPHPGALPPAAA | 0.631 ± 0.035 |
| PPHPPLPARPSP | 0.681 ± 0.041 |
| PPHPPPPLLPAP | 0.715 ± 0.051 |
| PPHPSPPTPPPH | 0.687 ± 0.017 |
| PPIPPALLLVSP | 0.633 ± 0.0095 |
| PPIVHPGSLRSA | 0.673 ± 0.024 |
| PPIVPFGSPVVL | 0.728 ± 0.026 |
| PPKEEPRWATGD | 0.693 ± 0.043 |
| PPLIPPSCSPLH | 0.6864 ± 0.0027 |
| PPLLLSPCPSLP | 0.7229 ± 0.0034 |
| PPLLPLCVPPPP | 0.71 ± 0.033 |
| PPLLPPGPPSPP | 0.588 ± 0.01 |
| PPLLPPPPRRPP | 0.643 ± 0.0012 |
| PPLLTPSVPFSS | 0.715 ± 0.033 |

| Sequence | protein stability index |
| --- | --- |
| PPLPFPPLPPSP | 0.74 ± 0.063 |
| PPLPFPPPPLPP | 0.613 ± 0.029 |
| PPLPLLPSPSPL | 0.753 ± 0.086 |
| PPLPLLSTCAGA | 0.69 ± 0.15 |
| PPLPLSTLFLSA | 0.712 ± 0.041 |
| PPLPPAPPPSPP | 0.652 ± 0.029 |
| PPLPPPCPLPRN | 0.7711 ± 0.0013 |
| PPLPPPPPDFSP | 0.761 ± 0.18 |
| PPLPPPPPRPPP | 0.611 ± 0.086 |
| PPLPPPRPLSPC | 0.713 ± 0.094 |
| PPLPPPRRSSPP | 0.705 ± 0.02 |
| PPLPPRSISPVL | 0.737 ± 0.11 |
| PPLPPRTPPPLS | 0.704 ± 0.077 |
| PPLPSPASPRTP | 0.721 ± 0.031 |
| PPLPSPPAHSRS | 0.678 ± 0.02 |
| PPLRLRLPPAVL | 0.629 ± 0.095 |
| PPLSPPALPPPL | 0.672 ± 0.0076 |
| PPLSSFSHHSFG | 0.715 ± 0.069 |
| PPLTPLPLGSPP | 0.717 ± 0.027 |
| PPLTRPPTPVPP | 0.6626 ± 0.0048 |
| PPLVHHSTLPPA | 0.679 ± 0.022 |
| PPLVPRTSPSPS | 0.666 ± 0.012 |
| PPLYPGSKVQLL | 0.672 ± 0.011 |
| PPNHRAGSWLAR | 0.655 ± 0.012 |
| PPNPFRHTPSIP | 0.736 ± 0.027 |
| PPNPNEPTQTPA | 0.711 ± 0.013 |

| Sequence | protein stability index |
| --- | --- |
| PPNPPPPPLPPP | 0.666 ± 0.068 |
| PPPAASCLLLPL | 0.699 ± 0.028 |
| PPPALLAPPLPF | 0.756 ± 0.096 |
| PPPAPAPPLTSS | 0.71 ± 0.023 |
| PPPAPLALTPSL | 0.71394 ± 0.00049 |
| PPPAPPPCAPTP | 0.713 ± 0.043 |
| PPPAPSPPPSPP | 0.611 ± 0.0099 |
| PPPAPSSPVLVP | 0.686 ± 0.037 |
| PPPARSPLPLPP | 0.742 ± 0.018 |
| PPPFPLLSPPPL | 0.808 ± 0.0097 |
| PPPHPHLPPHSD | 0.69 ± 0.06 |
| PPPHPLLRPSPS | 0.737 ± 0.011 |
| PPPHPPHSALPS | 0.762 ± 0.021 |
| PPPHPPLPPPTP | 0.678 ± 0.039 |
| PPPHPPPPAPPY | 0.735 ± 0.019 |
| PPPHPTLSPLVP | 0.676 ± 0.013 |
| PPPHTHPPTPLL | 0.689 ± 0.011 |
| PPPLASLPSFLR | 0.739 ± 0.011 |
| PPPLLPPRAPSP | 0.6294 ± 0.0031 |
| PPPLLTSSPPPR | 0.712 ± 0.025 |
| PPPLPASPPPPY | 0.683 ± 0.035 |
| PPPLPLSLCEPL | 0.7 ± 0.019 |
| PPPLPPALSPSH | 0.679 ± 0.07 |
| PPPLPPPHPSPI | 0.669 ± 0.019 |
| PPPLPPPSLLPT | 0.762 ± 0.043 |
| PPPLPSIPPFVL | 0.708 ± 0.094 |

| Sequence | protein stability index |
| --- | --- |
| PPPLPSPAPPPP | 0.709 ± 0.053 |
| PPPLSPPRPPRH | 0.701 ± 0.022 |
| PPPNSTPNPLST | 0.7394 ± 0.0058 |
| PPPPAHSYHPPS | 0.714 ± 0.16 |
| PPPPGPSSPHPP | 0.707 ± 0.041 |
| PPPPHCPQPPPP | 0.72 ± 0.018 |
| PPPPHDLLTPPS | 0.736 ± 0.0079 |
| PPPPLAPSPPPS | 0.6542 ± 0.0025 |
| PPPPLPLPPSLP | 0.5979 ± 0.0054 |
| PPPPLPPALFPP | 0.589 ± 0.013 |
| PPPPLPPFPPHP | 0.659 ± 0.017 |
| PPPPLPPSSPPL | 0.751 ± 0.027 |
| PPPPPACRLCFF | 0.634 ± 0.1 |
| PPPPPLPQAPPT | 0.687 ± 0.014 |
| PPPPPPLPPLSP | 0.717 ± 0.035 |
| PPPPPPLPPSAA | 0.711 ± 0.0091 |
| PPPPPPNLASHP | 0.707 ± 0.0031 |
| PPPPPPPCFFPP | 0.715 ± 0.048 |
| PPPPPPPHPTPT | 0.676 ± 0.039 |
| PPPPPPPLPPPP | 0.667 ± 0.015 |
| PPPPPPPPAPPY | 0.725 ± 0.017 |
| PPPPPPPPAVVA | 0.569 ± 0.028 |
| PPPPPPPPPHSP | 0.769 ± 0.01 |
| PPPPPPPPPLAF | 0.653 ± 0.12 |
| PPPPPPPPRPPS | 0.651 ± 0.069 |
| PPPPPPPPTPAS | 0.654 ± 0.023 |

| Sequence | protein stability index |
| --- | --- |
| PPPPPPPPVPLL | 0.708 ± 0.017 |
| PPPPPPPVLSSI | 0.647 ± 0.076 |
| PPPPPPSAPPPS | 0.669 ± 0.026 |
| PPPPPPSISPSP | 0.5389 ± 0.0053 |
| PPPPPPSPHPPS | 0.726 ± 0.024 |
| PPPPPQLPQCPP | 0.711 ± 0.042 |
| PPPPPRPPAGFL | 0.924 ± 0.095 |
| PPPPPRPPPARL | 0.672 ± 0.06 |
| PPPPPRPSPPHP | 0.833 ± 0.022 |
| PPPPPSSPPLPP | 0.64 ± 0.083 |
| PPPPPSVTRTQP | 0.649 ± 0.043 |
| PPPPPTSPPPHP | 0.706 ± 0.032 |
| PPPPRLSLHSPP | 0.713 ± 0.0085 |
| PPPPRPACLPSN | 0.727 ± 0.018 |
| PPPPRPSSDRFR | 0.684 ± 0.016 |
| PPPPSLPHTIGP | 0.643 ± 0.042 |
| PPPPSLPPSFPS | 0.67 ± 0.072 |
| PPPPSPPPIPSP | 0.706 ± 0.04 |
| PPPPSRPPPAPR | 0.701 ± 0.053 |
| PPPPSRPPPPRL | 0.789 ± 0.021 |
| PPPPTLSPPRSL | 0.718 ± 0.034 |
| PPPPTPRPPSSL | 0.728 ± 0.061 |
| PPPPVPPPALPL | 0.644 ± 0.045 |
| PPPPVPPPPSSL | 0.749 ± 0.037 |
| PPPQFPRPRPTS | 0.724 ± 0.014 |
| PPPRFRPLPLRA | 0.5935 ± 0.0019 |

| Sequence | protein stability index |
| --- | --- |
| PPPRPPPRPLPP | 0.669 ± 0.024 |
| PPPRPPSPPPPP | 0.672 ± 0.051 |
| PPPRPPSPPPPS | 0.699 ± 0.035 |
| PPPRPRPSSRSI | 0.71 ± 0.016 |
| PPPRTTPYPSSL | 0.714 ± 0.055 |
| PPPRVHPCHPPC | 0.678 ± 0.031 |
| PPPSPGSSAPPP | 0.676 ± 0.037 |
| PPPSPLANPPSP | 0.728 ± 0.092 |
| PPPSPPPQPHRP | 0.665 ± 0.018 |
| PPPSQPTSPPPP | 0.732 ± 0.067 |
| PPPSRLSPVICP | 0.612 ± 0.01 |
| PPPSRSLPPRPQ | 0.727 ± 0.027 |
| PPPSRSLPPRRL | 0.661 ± 0.03 |
| PPPSSIGRTPIS | 0.693 ± 0.033 |
| PPPSSPPPPAPL | 0.694 ± 0.035 |
| PPPTHQLAVLSP | 0.6413 ± 0.0062 |
| PPPTPPPAPSHR | 0.677 ± 0.1 |
| PPPTSPPHPPSP | 0.701 ± 0.083 |
| PPPVFPPLPVLS | 0.598 ± 0.007 |
| PPQFIYYPLPLF | 0.616 ± 0.063 |
| PPQGMTGGRGDR | 0.697 ± 0.077 |
| PPQTHPLPCPSP | 0.745 ± 0.018 |
| PPRAPFVSPFGY | 0.723 ± 0.012 |
| PPRAPSPSPLPP | 0.893 ± 0.1 |
| PPRCPLPPLSPP | 0.701 ± 0.11 |
| PPRFFARPPFRT | 0.6309 ± 0.0059 |

| Sequence | protein stability index |
| --- | --- |
| PPRGAPWTRPPQ | 0.691 ± 0.015 |
| PPRGFDPSFQTV | 0.7 ± 0.18 |
| PPRHPPPSPLVA | 0.668 ± 0.011 |
| PPRHTPFSLPPF | 0.651 ± 0.074 |
| PPRLNKAPCLDP | 0.705 ± 0.036 |
| PPRPFTLLPPPP | 0.6424 ± 0.0062 |
| PPRPPAPHLSGI | 0.681 ± 0.039 |
| PPRPPPAPPPLP | 0.642 ± 0.0021 |
| PPRPPPFPPLLP | 0.679 ± 0.058 |
| PPRPPPHPPLPP | 0.678 ± 0.0057 |
| PPRPPPLPPSRP | 0.627 ± 0.032 |
| PPRPPPSPPSFP | 0.688 ± 0.014 |
| PPRPPRFFLLPP | 0.6586 ± 0.0061 |
| PPRPQPPGSSFS | 0.741 ± 0.012 |
| PPRPRPRPLSPP | 0.65 ± 0.039 |
| PPRPSLIPPLPS | 0.61 ± 0.016 |
| PPRPSTPPRHSL | 0.695 ± 0.058 |
| PPRQPACAFLPS | 0.653 ± 0.09 |
| PPRSPPPLSPTP | 0.583 ± 0.038 |
| PPRSPPPPPTLP | 0.6578 ± 0.001 |
